Assay results from article PMC7922139, “Characterization of a Yellow Laccase from Botrytis cinerea 241” (Journal of Fungi, 2021).

What was measured:
[1] = test system: CCn1c(=NN=c2sc3cc(S(=O)(=O)O)ccc3n2CC)sc2cc(S(=O)(=O)O)ccc21; experiment: purified protein; conditions: 50 mM sodium acetate pH 5.5, 25 °C
[2] = test system: CN(C)CCCN1c2ccccc2Sc2ccccc21; experiment: purified protein; conditions: 50 mM sodium acetate pH 5.5, 25 °C
[3] = test system: COc1cc(/C=C/C(=O)O)cc(OC)c1O; experiment: purified protein; conditions: 50 mM sodium acetate pH 5.5, 25 °C
COc1cc(C(=O)O)cc(OC)c1O = experiment: purified protein; conditions: 50 mM sodium acetate pH 5.5, 25 °C
[4] = test system: COc1cc(C=NN=Cc2cc(OC)c(O)c(OC)c2)cc(OC)c1O; experiment: purified protein; conditions: 50 mM sodium acetate pH 5.5, 25 °C
Nc1ccc(N)cc1 = experiment: purified protein; conditions: 50 mM sodium acetate pH 5.5, 25 °C
[5] = test system: O=C(O)/C=C/c1ccc(O)c(O)c1; experiment: purified protein; conditions: 50 mM sodium acetate pH 5.5, 25 °C
[6] = test system: O=C(O)CCN1c2ccccc2Oc2ccccc21; experiment: purified protein; conditions: 50 mM sodium acetate pH 5.5, 25 °C
O=C(O)c1cc(O)c(O)c(O)c1 = experiment: purified protein; conditions: 50 mM sodium acetate pH 5.5, 25 °C
[7] = test system: O=c1c(O)c(-c2ccc(O)c(O)c2)oc2cc(O)cc(O)c12; experiment: purified protein; conditions: 50 mM sodium acetate pH 5.5, 25 °C
[8] = test system: O=c1c(O)c(-c2ccc(O)c(O)c2)oc2cc(O)ccc12; experiment: purified protein; conditions: 50 mM sodium acetate pH 5.5, 25 °C
[9] = test system: O=c1c(O)c(-c2ccc(O)cc2)oc2cc(O)cc(O)c12; experiment: purified protein; conditions: 50 mM sodium acetate pH 5.5, 25 °C
OCCN1c2ccccc2Oc2ccccc21 = experiment: purified protein; conditions: 50 mM sodium acetate pH 5.5, 25 °C
Oc1ccc(O)cc1 = experiment: purified protein; conditions: 50 mM sodium acetate pH 5.5, 25 °C
Oc1ccccc1O = experiment: purified protein; conditions: 50 mM sodium acetate pH 5.5, 25 °C
[10] = target: yellow laccase Bcl1 from Botrytis cinerea strain 241 (Botrytis cinerea strain 241); experiment: SEC; Superdex 200 5/150 GL analytical column, 50 mM Tris-HCl, 150 mM NaCl, pH 8; mass read against standards (apoferritin, beta-amylase, alcohol dehydrogenase, albumin) and compared with the mass by SDS-PAGE

Question: With Bcl1 laccase (Botrytis cinerea) as the substance, how does the Km [1] read?
Answer: 13.8 ± 0.2 µM

Question: And the kcat [1]?
Answer: 29 ± 1 s⁻¹

Question: What about the kcat/Km [1] of the same substance?
Answer: 2.1e+06 ± 100000 M⁻¹ s⁻¹

Question: What about the Km [2] of the same substance?
Answer: 60.0 ± 10 µM

Question: And the kcat [2]?
Answer: 7.1 ± 0.3 s⁻¹

Question: And the Km [3]?
Answer: 60.0 ± 10 µM

Question: What about the kcat [3] of the same substance?
Answer: 100 ± 10 s⁻¹

Question: What about the Km (COc1cc(C(=O)O)cc(OC)c1O) of the same substance?
Answer: 74.0 ± 12 µM

Question: What about the kcat (COc1cc(C(=O)O)cc(OC)c1O) of the same substance?
Answer: 3.4 ± 0.5 s⁻¹

Question: And the kcat/Km (COc1cc(C(=O)O)cc(OC)c1O)?
Answer: 46000 ± 5000 M⁻¹ s⁻¹

Question: What about the Km [4] of the same substance?
Answer: 0.7 ± 0.1 µM

Question: And the kcat [4]?
Answer: 30 ± 2 s⁻¹

Question: What about the kcat/Km [4] of the same substance?
Answer: 4.3e+07 ± 7e+06 M⁻¹ s⁻¹

Question: And the Km (Nc1ccc(N)cc1)?
Answer: 150.0 ± 20 µM

Question: And the kcat (Nc1ccc(N)cc1)?
Answer: 15 ± 1 s⁻¹

Question: What about the kcat/Km (Nc1ccc(N)cc1) of the same substance?
Answer: 100000 ± 2000 M⁻¹ s⁻¹

Question: And the Km [5]?
Answer: 15.0 ± 1 µM

Question: What about the kcat [5] of the same substance?
Answer: 13 ± 1 s⁻¹

Question: What about the kcat/Km [5] of the same substance?
Answer: 870000 ± 200000 M⁻¹ s⁻¹

Question: And the Km [6]?
Answer: 6.0 ± 0.8 µM

Question: And the kcat [6]?
Answer: 33 ± 1 s⁻¹

Question: And the kcat/Km [6]?
Answer: 5.5e+06 ± 800000 M⁻¹ s⁻¹

Question: And the Km (O=C(O)c1cc(O)c(O)c(O)c1)?
Answer: 27.0 ± 8 µM

Question: What about the kcat (O=C(O)c1cc(O)c(O)c(O)c1) of the same substance?
Answer: 20 ± 3 s⁻¹

Question: And the kcat/Km (O=C(O)c1cc(O)c(O)c(O)c1)?
Answer: 740000 ± 200000 M⁻¹ s⁻¹

Question: What about the Km [7] of the same substance?
Answer: 3.7 ± 0.8 µM

Question: And the kcat [7]?
Answer: 6.7 ± 0.4 s⁻¹

Question: And the kcat/Km [7]?
Answer: 1.8e+06 ± 300000 M⁻¹ s⁻¹

Question: What about the Km [8] of the same substance?
Answer: 1.5 ± 0.1 µM

Question: And the kcat [8]?
Answer: 7.8 ± 0.3 s⁻¹

Question: And the kcat/Km [8]?
Answer: 5.2e+06 ± 900000 M⁻¹ s⁻¹

Question: What about the Km [9] of the same substance?
Answer: 8.6 ± 0.1 µM

Question: What about the kcat/Km [9] of the same substance?
Answer: 2e+06 ± 400000 M⁻¹ s⁻¹

Question: And the Km (OCCN1c2ccccc2Oc2ccccc21)?
Answer: 40.0 ± 7 µM

Question: What about the kcat (OCCN1c2ccccc2Oc2ccccc21) of the same substance?
Answer: 25 ± 2 s⁻¹

Question: What about the kcat/Km (OCCN1c2ccccc2Oc2ccccc21) of the same substance?
Answer: 630000 ± 30000 M⁻¹ s⁻¹

Question: What about the kcat (Oc1ccc(O)cc1) of the same substance?
Answer: 21.4 ± 0.3 s⁻¹

Question: What about the kcat/Km (Oc1ccc(O)cc1) of the same substance?
Answer: 97000 ± 2000 M⁻¹ s⁻¹

Question: What about the Km (Oc1ccccc1O) of the same substance?
Answer: 70.0 ± 4 µM

Question: What about the kcat (Oc1ccccc1O) of the same substance?
Answer: 28 ± 1 s⁻¹

Question: What about the kcat/Km (Oc1ccccc1O) of the same substance?
Answer: 400000 ± 20000 M⁻¹ s⁻¹

Question: With “yellow laccase Bcl1 from Botrytis cinerea strain 241 (enzyme)” as the substance, how does the stoichiometry N [10] read?
Answer: 2
